Source: the FLAb antibody collection (doi:10.7554/elife.23156)

B1: scFv; the commonest letter at each place (parent)
chain 1: EVKLDETGGGLVQPGRPMKLSCVASGFTFSDYWMNWVRQSPEKGLEWVAQIRNKPYNYETYYSDSVKGRFTISRDDSKSSVYLQMNNLRVEDMGIYYCTGSYYGMDYWGQGTSVTVS
chain 2: DVVMTQTPLSLPVSLGDQASISCRSSQSLVHSNGNTYLRWYLQKPGQSPKVLIYKVSNRFSGVPDRFSGSGSGTDFTLKISRVEAEDLGVYFCSQSTHVPWTFGGGTKLEIK

How the values were obtained:
[1] = variants of: B1; test: Kd (Tite-Seq); settings: with fluorescein; format: scFv 4-4-20, heavy + light
[2] = variants of: B1; test: yeast surface expression (ratio to wild type); higher = more expressed; settings: format: scFv 4-4-20, heavy + light

Row | Variant | Kd [1] [µM] | yeast surface expression [2]
1 | chain 1 G104W | ≥ 10 | 0.587
2 | chain 1 G104N | ≥ 10 | 1.1
3 | chain 1 F29L M34D | ≥ 10 | 0.656
4 | chain 1 F29V N35V | ≥ 10 | 0.239
5 | chain 1 F29Q S30G | 0.0391 | 0.863
6 | chain 1 G104R D106P Y107A | ≥ 10 | 0.359
7 | chain 1 D31G M34C N35L | ≥ 10 | 0.825
8 | chain 1 F29P W33G | ≥ 10 | 0.951
9 | chain 1 D106S | 0.00279 | 1.16
10 | chain 1 D106T | 0.00785 | 1.09
11 | chain 1 D106K | ≥ 10 | 0.415
12 | chain 1 G100Q Y107C | ≥ 10 | 0.176
13 | chain 1 F29T S30D M34V | ≥ 10 | 0.837
14 | chain 1 S30P N35G | 0.00468 | 1.19
15 | chain 1 S30I D31T W36P | ≥ 10 | 0.928
16 | chain 1 F29N V37T | ≥ 10 | 0.668
17 | chain 1 M105V G109I | ≥ 10 | 0.203
18 | chain 1 G100R Y102I | ≥ 10 | 0.483
19 | chain 1 G100E S101V | ≥ 10 | 0.225

Row | Variant | Kd [1] [µM] | yeast surface expression [2]
20 | chain 1 G104D M105W | ≥ 10 | 0.703
21 | chain 1 G100V W108C | 5.96 | 0.628
22 | chain 1 G100Y Y107Q | ≥ 10 | 0.595
23 | chain 1 F29A M34A | ≥ 10 | 0.738
24 | chain 1 G100R D106V | ≥ 10 | 0.108
25 | chain 1 G104L M105G Y107F | ≥ 10 | 0.414
26 | chain 1 F29P V37K | 2.01 | 0.288
27 | chain 1 G104C Y107P W108I | ≥ 10 | 0.214
28 | chain 1 D31T V37W | 6.61 | 0.726
29 | chain 1 D31K | 0.00154 | 0.867
30 | chain 1 D31F | 0.00547 | 0.636
31 | chain 1 M105P W108S | ≥ 10 | 0.621
32 | chain 1 D31N W36C | ≥ 10 | 0.275
33 | chain 1 D31N W36I | 0.0287 | 0.679
34 | chain 1 G104D G109L | ≥ 10 | 0.236
35 | chain 1 G100W S101L | ≥ 10 | 0.293
36 | chain 1 D106W W108K | ≥ 10 | 0.243
37 | chain 1 G104R M105C | ≥ 10 | 0.315
38 | chain 1 M34L N35T | ≥ 10 | 0.824

Row | Variant | Kd [1] [µM] | yeast surface expression [2]
39 | chain 1 D106I W108N | ≥ 10 | 0.254
40 | chain 1 S30E W33Q | ≥ 10 | 0.96
41 | chain 1 F29S N35Y | 0.327 | 1.05
42 | chain 1 F29S N35H | ≥ 10 | 0.836
43 | chain 1 G100C M105F | ≥ 10 | 0.642
44 | chain 1 N35F V37S | ≥ 10 | 0.884
45 | chain 1 S30F N35T | ≥ 10 | 0.588
46 | chain 1 G100T S101D | ≥ 10 | 0.83
47 | chain 1 M105E Y107C | ≥ 10 | 0.847
48 | chain 1 D106A W108V | ≥ 10 | 0.529
49 | chain 1 G104F W108I | ≥ 10 | 0.146
50 | chain 1 M34C V37F | ≥ 10 | 0.777
51 | chain 1 D31S W36C | ≥ 10 | 0.929
52 | chain 1 S30N N35W | ≥ 10 | 0.529
53 | chain 1 G100I G104W | ≥ 10 | 0.449
54 | chain 1 S30P D31S N35P | ≥ 10 | 0.757
55 | chain 1 G100H D106F | 9.5 | 0.752
56 | chain 1 S30I | 0.00215 | 0.787
57 | chain 1 G104T G109L | ≥ 10 | 0.241

Continued, in another order:

Row | Kd [1] [µM] | Variant | yeast surface expression [2]
58 | ≥ 10 | chain 1 W108E | 0.463
59 | ≥ 10 | chain 1 T28R W36S | 0.272
60 | ≥ 10 | chain 1 S101I Y102T | 0.614
61 | ≥ 10 | chain 1 S30V W33A | 0.748
62 | ≥ 10 | chain 1 Y32T M34E | 0.451
63 | ≥ 10 | chain 1 Y103L D106P | 0.559
64 | 0.11 | chain 1 Y103A Y107T | 1.13
65 | ≥ 10 | chain 1 S101I Y107K | 0.29
66 | ≥ 10 | chain 1 S101I | 0.521
67 | ≥ 10 | chain 1 S101M | 0.591
68 | ≥ 10 | chain 1 T28Q M34P | 0.676
69 | ≥ 10 | chain 1 Y32D W33E | 0.525
70 | ≥ 10 | chain 1 Y102E M105A | 0.815
71 | ≥ 10 | chain 1 S30Q W33S | 0.902
72 | ≥ 10 | chain 1 Y102Q G104H | 0.672
73 | ≥ 10 | chain 1 S101G M105A | 0.988
74 | ≥ 10 | chain 1 Y102M Y103E | 1.26
75 | ≥ 10 | chain 1 Y103F G104R W108Y | 0.139
76 | ≥ 10 | chain 1 S101Y G109K | 0.212
77 | ≥ 10 | chain 1 S101T D106Q | 0.796

Row | Kd [1] [µM] | Variant | yeast surface expression [2]
78 | 0.00309 | chain 1 T28I D31A | 0.566
79 | 0.676 | chain 1 Y32H W36F | 0.839
80 | ≥ 10 | chain 1 S101N W108D | 0.399
81 | ≥ 10 | chain 1 W33E V37C | 0.709
82 | ≥ 10 | chain 1 W33E V37Y | 1
83 | ≤ 0.000316 | chain 1 Y102H W108M | 0.91
84 | 0.071 | chain 1 V37G | 0.58
85 | ≥ 10 | chain 1 V37E | 0.597
86 | ≥ 10 | chain 1 S101E W108K | 0.375
87 | ≥ 10 | chain 1 S101E W108H | 0.374
88 | ≥ 10 | chain 1 S101E W108G | 0.368
89 | 6.96 | chain 1 T28K M34K | 0.284
90 | 0.00122 | chain 1 T28K M34V | 0.867
91 | ≥ 10 | chain 1 Y32W M34W | 0.838
92 | 0.205 | chain 1 Y32W M34N | 0.386
93 | ≥ 10 | chain 1 T28C Y32P | 0.707
94 | 0.0113 | chain 1 Y102A M105N | 1.14
95 | ≥ 10 | chain 1 W33N N35I | 0.657
96 | ≥ 10 | chain 1 Y107E G109E | 0.288
97 | ≥ 10 | chain 1 T28E M34R | 0.531

Row | Kd [1] [µM] | Variant | yeast surface expression [2]
98 | ≥ 10 | chain 1 Y103H W108R | 0.35
99 | ≥ 10 | chain 1 S101R Y107I | 0.812
100 | ≥ 10 | chain 1 S101R Y103K | 0.984
101 | ≥ 10 | chain 1 W33D V37C | 0.802
102 | ≥ 10 | chain 1 S101F W108E | 0.216
103 | ≥ 10 | chain 1 Y103H M105F Y107L | 0.92
104 | 0.00708 | chain 1 T28P F29V | 0.927
105 | ≥ 10 | chain 1 W33E N35K | 0.455
106 | 0.0015 | chain 1 T28A F29Y | 1.06
107 | ≥ 10 | chain 1 W108E G109P | 0.356
108 | ≥ 10 | chain 1 Y102W G104H G109I | 0.0981
109 | ≥ 10 | chain 1 Y102K G104L D106G | 0.302
110 | ≥ 10 | chain 1 Y107G W108A | 0.528
111 | ≥ 10 | chain 1 Y103I D106A | 0.489
112 | ≥ 10 | chain 1 Y103I D106Q | 0.516
113 | 0.00265 | chain 1 S30Y D31T | 0.428
114 | ≥ 10 | chain 1 Y103V Y107V | 0.603
115 | ≥ 10 | chain 1 Y102Q M105D | 0.932
116 | 0.0269 | chain 1 T28S F29S | 1.17
